# Data from patent US20130253037.
# B1: 6-His-LIMK2 (recombinant, E. coli) (protein)
# chain: MSALAGEDVWRCPGCGDHIAPSQIWYRTVNETWHGSCFRCSECQDSLTNWYYEKDGKLYCPKDYWGKFGEFCHGCSLLMTGPFMVAGEFKYHPECFACMSCKVIIEDGDAYALVQHATLYCGKCHNEVVLAPMFERLSTESVQEQLPYSVTLISMPATTEGRRGFSVSVESACSNYATTVQVKEVNRMHISPNNRNAIHPGDRILEINGTPVRTLRVEEVEDAISQTSQTLQLLIEHDPVSQRLDQLRLEARLAPHMQNAGHPHALSTLDTKENLEGTLRRRSLRRSNSISKSPGPSSPKEPLLFSRDISRSESLRCSSSYSQQIFRPCDLIHGEVLGKGFFGQAIKVTHKATGKVMVMKELIRCDEETQKTFLTEVKVMRSLDHPNVLKFIGVLYKDKKLNLLTEYIEGGTLKDFLRSMDPFPWQQKVRFAKGIASGMAYLHSMCIIHRDLNSHNCLIKLDKTVVVADFGLSRLIVEERKRAPMEKATTKKRTLRKNDRKKRYTVVGNPYWMAPEMLNGKSYDETVDIFSFGIVLCEIIGQVYADPDCLPRTLDFGLNVKLFWEKFVPTDCPPAFFPLAAICCRLEPESRPAFSKLEDSFEALSLYLGELGIPLPAELEELDHTVSMQYGLTRDSPP
# Experiments:
# [1] = target: 6-His-cofilin
# [2] = target: 6-His-Aurora-A (recombinant, wild type, from Sf9 insect cells)
protein,measurement,setting,value
B1,"in vitro kinase assay, cofilin phosphorylation with [32P] ATP",[1],LIMK2 efficiently phosphorylated cofilin as expected (lane 3)
same,"in vitro kinase assay, Aurora A (without TPX2) as putative LIMK2 substrate",[2],"when LIMK2 was incubated with Aurora A (without TPX2), Aurora A did not get phosphorylated"
